Reference: US20260061032A1

How the values were obtained:
[1] = biological target: IL-2Rβγ on HEK-BLUE IL-2 reporter cells (UniProt P14784); experiment: cell-based or functional assay
[2] = biological target: hIL-2Rαβγ on CTLL-2 cells (human) (UniProt P01589); experiment: cell-based or functional assay
[3] = biological target: hIL-2Rα (human) (UniProt P01589); experiment: SPR, Biacore T200; hIL-2Rα on CM5 chip through His capture kit, binder as analyte
[4] = biological target: hIL-2Rβγ (human) (UniProt P14784); experiment: SPR, Biacore T200; hIL-2Rβγ as analyte, single cycle kinetics; three-step format as the filing describes it
hIL-2Rβγ (human), sequence (P14784 27-239, chain 1 of 2): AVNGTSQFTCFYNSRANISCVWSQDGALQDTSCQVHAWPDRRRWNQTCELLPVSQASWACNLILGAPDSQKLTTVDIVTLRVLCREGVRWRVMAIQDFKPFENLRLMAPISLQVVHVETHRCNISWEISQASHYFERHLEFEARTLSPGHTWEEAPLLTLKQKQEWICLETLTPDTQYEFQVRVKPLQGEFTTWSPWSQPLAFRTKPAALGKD
hIL-2Rβγ (human), sequence (P31785 23-254, chain 2 of 2, further chain): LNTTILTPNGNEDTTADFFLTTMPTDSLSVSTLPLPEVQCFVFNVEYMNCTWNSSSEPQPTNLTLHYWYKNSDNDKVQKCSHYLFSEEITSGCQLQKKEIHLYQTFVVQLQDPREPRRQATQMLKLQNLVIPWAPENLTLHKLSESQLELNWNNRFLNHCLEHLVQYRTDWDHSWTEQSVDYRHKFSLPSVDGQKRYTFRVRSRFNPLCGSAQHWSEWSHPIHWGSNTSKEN

[5] = biological target: hIL-2Rβ (human) (UniProt P14784); experiment: SPR, Biacore T200; hIL-2Rβ as analyte; three-step format as the filing describes it
hIL-2Rβ (human), sequence (P14784 27-239): as the sequence (P14784 27-239, chain 1 of 2) above

[6] = biological target: membrane-bound human CD73 (human) (UniProt P21589); experiment: cell-based or functional assay
membrane-bound human CD73 (human), sequence (P21589 27-549 limits assumed): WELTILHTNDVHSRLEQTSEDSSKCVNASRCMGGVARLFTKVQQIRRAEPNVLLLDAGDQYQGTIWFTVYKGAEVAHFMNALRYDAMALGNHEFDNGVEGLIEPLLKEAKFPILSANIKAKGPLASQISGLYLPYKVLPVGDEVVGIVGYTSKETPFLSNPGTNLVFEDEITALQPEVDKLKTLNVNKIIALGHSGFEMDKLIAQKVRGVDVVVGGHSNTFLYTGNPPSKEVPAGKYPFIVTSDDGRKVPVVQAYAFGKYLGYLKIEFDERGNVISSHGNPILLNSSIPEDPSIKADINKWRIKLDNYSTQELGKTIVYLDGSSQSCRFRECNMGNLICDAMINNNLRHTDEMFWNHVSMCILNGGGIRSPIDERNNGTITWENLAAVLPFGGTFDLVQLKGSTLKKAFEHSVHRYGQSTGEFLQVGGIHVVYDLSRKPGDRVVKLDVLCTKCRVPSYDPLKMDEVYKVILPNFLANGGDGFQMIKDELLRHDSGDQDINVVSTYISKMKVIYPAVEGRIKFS

[7] = biological target: hCD73 (human) (UniProt P21589); experiment: cell-based or functional assay
hCD73 (human), sequence (P21589 27-549 limits assumed): as above

[8] = biological target: cyCD73; experiment: SPR, Biacore T200; binder captured on CM5 chip by human antibody capture kit, CD73 as analyte
[9] = biological target: hCD73 (human) (UniProt P21589); experiment: as above

hIL-2Rα (human), sequence (P01589 22-213): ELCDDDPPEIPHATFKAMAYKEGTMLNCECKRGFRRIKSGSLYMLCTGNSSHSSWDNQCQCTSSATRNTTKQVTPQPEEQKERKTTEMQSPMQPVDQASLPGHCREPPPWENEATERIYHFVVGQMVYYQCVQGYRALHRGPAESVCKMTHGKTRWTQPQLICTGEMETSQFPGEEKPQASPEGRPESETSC
hIL-2Rαβγ on CTLL-2 cells (human), sequence (P01589 22-272, chain 1 of 3): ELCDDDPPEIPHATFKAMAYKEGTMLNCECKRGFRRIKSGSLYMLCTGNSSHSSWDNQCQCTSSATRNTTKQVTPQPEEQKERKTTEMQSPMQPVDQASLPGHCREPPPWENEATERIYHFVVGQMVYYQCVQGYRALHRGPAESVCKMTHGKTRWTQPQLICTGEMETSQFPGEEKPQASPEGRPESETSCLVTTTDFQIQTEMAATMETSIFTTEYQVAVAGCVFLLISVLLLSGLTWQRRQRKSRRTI
hIL-2Rαβγ on CTLL-2 cells (human), sequence (P14784 27-551, chain 2 of 3, further chain): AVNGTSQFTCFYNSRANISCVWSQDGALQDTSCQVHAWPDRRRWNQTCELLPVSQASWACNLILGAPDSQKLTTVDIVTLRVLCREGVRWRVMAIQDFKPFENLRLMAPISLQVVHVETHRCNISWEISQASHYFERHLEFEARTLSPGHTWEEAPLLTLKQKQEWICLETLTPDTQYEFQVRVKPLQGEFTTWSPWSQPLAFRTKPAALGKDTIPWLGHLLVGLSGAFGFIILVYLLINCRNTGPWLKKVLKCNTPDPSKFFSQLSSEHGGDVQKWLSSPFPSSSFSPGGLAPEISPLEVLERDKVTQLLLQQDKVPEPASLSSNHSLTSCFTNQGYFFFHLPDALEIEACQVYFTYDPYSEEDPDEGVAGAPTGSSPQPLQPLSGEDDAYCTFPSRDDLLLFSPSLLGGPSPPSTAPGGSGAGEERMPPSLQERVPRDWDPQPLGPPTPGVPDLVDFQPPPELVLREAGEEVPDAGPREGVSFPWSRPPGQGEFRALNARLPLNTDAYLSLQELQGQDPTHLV
hIL-2Rαβγ on CTLL-2 cells (human), sequence (P31785 23-369, chain 3 of 3, further chain): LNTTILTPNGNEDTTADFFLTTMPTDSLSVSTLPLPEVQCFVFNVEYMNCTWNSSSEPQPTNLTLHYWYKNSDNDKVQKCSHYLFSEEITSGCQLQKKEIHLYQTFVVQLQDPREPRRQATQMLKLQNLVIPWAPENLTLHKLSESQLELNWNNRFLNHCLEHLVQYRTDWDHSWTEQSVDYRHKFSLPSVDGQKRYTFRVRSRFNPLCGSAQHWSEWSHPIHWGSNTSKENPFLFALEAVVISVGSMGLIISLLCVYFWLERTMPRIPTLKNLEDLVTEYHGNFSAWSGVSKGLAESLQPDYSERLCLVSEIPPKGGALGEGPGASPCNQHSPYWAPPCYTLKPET
IL-2Rβγ on HEK-BLUE IL-2 reporter cells, sequence (P14784 27-551, chain 1 of 2): as the sequence (P14784 27-551, chain 2 of 3, further chain) above
IL-2Rβγ on HEK-BLUE IL-2 reporter cells, sequence (P31785 23-369, chain 2 of 2, further chain): as the sequence (P31785 23-369, chain 3 of 3, further chain) above

Row | Substance | EC50, SEAP reporter (JAK-STAT pathway activation) in HEK-BLUE IL-2 reporter cells [1] [nM] | EC50, CTLL-2 cell proliferation (WST-1 absorbance) [2] [nM] | Kd [3] [nM] | Kd [4] [nM] | Kd [5] [nM] | IC50, inhibition of membrane-bound CD73 enzyme activity on MDA-MB-231 cells (adenosine assay) [6] [nM] | IC50, inhibition of soluble CD73 enzyme activity (AMP-Glo assay, recombinant human CD73) [7] [nM] | Kd [8] [nM] | Kd [9] [nM]
1 | Aldesleukin (trade name: PROLEUKIN, Novartis) (ligand) | 0.0103 | 0.08 | 49.6 | 0.01 | 2080 | – | – | – | –
2 | Oleclumab (Astrazeneca), produced on order from Ybiologics, Inc. (antibody) | – | – | – | – | – | 1.47 | 0.03 | 0.349 | 0.101
